Results reported in paper PMC9482650, “Quantitative fragmentomics allow affinity mapping of interactomes” (Nature Communications, 2022).

Target: T1, CARD11, Q9BXL7
T1 sequence (Q9BXL7 662-765, limits assumed, looked up): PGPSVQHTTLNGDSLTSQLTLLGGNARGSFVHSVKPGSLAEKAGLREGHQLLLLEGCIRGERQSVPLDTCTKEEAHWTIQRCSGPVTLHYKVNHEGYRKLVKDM
Assay: holdup assay
Parameters: key: below the threshold = too weak to quantify, mostly under pKd 3.1 to 4
Settings: plain residues with an end cap or a label only (N-terminal biotin on a linker: ado-ado)

pKd | Binder
below the threshold | TSQESEDTYL [TBC1D10A, Q9BXI6]
below the threshold | DDENIRTSDV [PLEKHA2, Q9HB19]

Target: T2, DFNB31_2, Q9P202
T2 sequence (Q9P202 274-371, limits assumed, looked up): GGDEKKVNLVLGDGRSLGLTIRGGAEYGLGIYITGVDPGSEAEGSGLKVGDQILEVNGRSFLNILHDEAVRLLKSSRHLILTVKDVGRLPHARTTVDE
Assay: holdup assay
Parameters: key: below the threshold = too weak to quantify, mostly under pKd 3.1 to 4
Settings: plain residues with an end cap or a label only (N-terminal biotin on a linker: ado-ado)

pKd | Binder
below the threshold | TSQESEDTYL [TBC1D10A, Q9BXI6]
below the threshold | DDENIRTSDV [PLEKHA2, Q9HB19]

Target: T3, DFNB31_3, Q9P202
T3 sequence (Q9P202 811-907, limits assumed, looked up): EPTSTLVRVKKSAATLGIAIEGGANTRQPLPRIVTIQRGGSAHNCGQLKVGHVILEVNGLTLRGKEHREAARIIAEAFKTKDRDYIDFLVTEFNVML
Assay: holdup assay
Parameters: key: below the threshold = too weak to quantify, mostly under pKd 3.1 to 4
Settings: plain residues with an end cap or a label only (N-terminal biotin on a linker: ado-ado)

pKd | Binder
4 | TSQESEDTYL [TBC1D10A, Q9BXI6]
below the threshold | DDENIRTSDV [PLEKHA2, Q9HB19]

Target: DLG1_1, Q12959
Assay: holdup assay
Parameters: key: below the threshold = too weak to quantify, mostly under pKd 3.1 to 4
Settings: plain residues with an end cap or a label only (N-terminal biotin on a linker: ado-ado)

pKd | Binder
below the threshold | TSQESEDTYL [TBC1D10A, Q9BXI6]
3.8 | DDENIRTSDV [PLEKHA2, Q9HB19]

Target: DLG1_2, Q12959
Assay: holdup assay
Parameters: key: below the threshold = too weak to quantify, mostly under pKd 3.1 to 4
Settings: plain residues with an end cap or a label only (N-terminal biotin on a linker: ado-ado)

pKd | Binder
below the threshold | TSQESEDTYL [TBC1D10A, Q9BXI6]
4.46 | DDENIRTSDV [PLEKHA2, Q9HB19]

Target: DLG2_3, Q15700
Assay: holdup assay
Parameters: key: below the threshold = too weak to quantify, mostly under pKd 3.1 to 4
Settings: plain residues with an end cap or a label only (N-terminal biotin on a linker: ado-ado)

pKd | Binder
below the threshold | TSQESEDTYL [TBC1D10A, Q9BXI6]
below the threshold | DDENIRTSDV [PLEKHA2, Q9HB19]

Target: FRMPD2_2, Q68DX3
Sequence (Q68DX3 944-1038): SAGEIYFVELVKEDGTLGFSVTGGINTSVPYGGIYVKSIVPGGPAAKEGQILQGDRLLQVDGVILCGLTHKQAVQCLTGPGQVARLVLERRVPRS
Assay: holdup assay
Parameters: key: below the threshold = too weak to quantify, mostly under pKd 3.1 to 4
Settings: plain residues with an end cap or a label only (N-terminal biotin on a linker: ado-ado)

pKd | Binder
below the threshold | TSQESEDTYL [TBC1D10A, Q9BXI6]
3.82 | DDENIRTSDV [PLEKHA2, Q9HB19]

Target: FRMPD2_3, Q68DX3
Sequence (Q68DX3 1073-1166): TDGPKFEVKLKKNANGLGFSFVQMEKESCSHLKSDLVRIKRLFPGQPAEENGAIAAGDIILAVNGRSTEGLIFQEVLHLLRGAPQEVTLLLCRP
Assay: holdup assay
Parameters: key: below the threshold = too weak to quantify, mostly under pKd 3.1 to 4
Settings: plain residues with an end cap or a label only (N-terminal biotin on a linker: ado-ado)

pKd | Binder
below the threshold | TSQESEDTYL [TBC1D10A, Q9BXI6]
below the threshold | DDENIRTSDV [PLEKHA2, Q9HB19]

Target: GIPC2, Q8TF65
Sequence (Q8TF65 112-203): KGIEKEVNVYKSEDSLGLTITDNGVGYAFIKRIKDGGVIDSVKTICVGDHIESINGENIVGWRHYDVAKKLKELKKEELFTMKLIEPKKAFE
Assay: holdup assay
Parameters: key: below the threshold = too weak to quantify, mostly under pKd 3.1 to 4
Settings: plain residues with an end cap or a label only (N-terminal biotin on a linker: ado-ado)

pKd | Binder
below the threshold | TSQESEDTYL [TBC1D10A, Q9BXI6]
3.84 | DDENIRTSDV [PLEKHA2, Q9HB19]

Target: GRASP, Q7Z6J2
Sequence (Q7Z6J2 96-193): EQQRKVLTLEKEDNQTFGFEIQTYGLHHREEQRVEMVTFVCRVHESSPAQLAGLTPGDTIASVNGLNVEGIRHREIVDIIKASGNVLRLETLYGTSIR
Assay: holdup assay
Parameters: key: below the threshold = too weak to quantify, mostly under pKd 3.1 to 4
Settings: plain residues with an end cap or a label only (N-terminal biotin on a linker: ado-ado)

pKd | Binder
below the threshold | TSQESEDTYL [TBC1D10A, Q9BXI6]
3.82 | DDENIRTSDV [PLEKHA2, Q9HB19]

Target: GRID2IP_2, A4D2P6
Sequence (A4D2P6 272-370): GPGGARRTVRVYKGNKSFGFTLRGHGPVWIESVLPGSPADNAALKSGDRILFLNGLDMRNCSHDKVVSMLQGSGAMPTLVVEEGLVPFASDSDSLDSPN
Assay: holdup assay
Parameters: key: below the threshold = too weak to quantify, mostly under pKd 3.1 to 4
Settings: plain residues with an end cap or a label only (N-terminal biotin on a linker: ado-ado)

pKd | Binder
below the threshold | TSQESEDTYL [TBC1D10A, Q9BXI6]
4.19 | DDENIRTSDV [PLEKHA2, Q9HB19]

Target: GRIP2_5, Q9C0E4
Sequence (Q9C0E4 544-642): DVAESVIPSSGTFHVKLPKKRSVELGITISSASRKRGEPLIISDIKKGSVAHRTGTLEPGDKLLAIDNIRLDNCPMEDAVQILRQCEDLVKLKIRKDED
Assay: holdup assay
Parameters: key: below the threshold = too weak to quantify, mostly under pKd 3.1 to 4
Settings: plain residues with an end cap or a label only (N-terminal biotin on a linker: ado-ado)

pKd | Binder
below the threshold | TSQESEDTYL [TBC1D10A, Q9BXI6]
below the threshold | DDENIRTSDV [PLEKHA2, Q9HB19]

Target: GRIP2_6, Q9C0E4
Sequence (Q9C0E4 648-740): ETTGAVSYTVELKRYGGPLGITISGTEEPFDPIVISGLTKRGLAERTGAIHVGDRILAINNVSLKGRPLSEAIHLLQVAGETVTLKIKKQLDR
Assay: holdup assay
Parameters: key: below the threshold = too weak to quantify, mostly under pKd 3.1 to 4
Settings: plain residues with an end cap or a label only (N-terminal biotin on a linker: ado-ado)

pKd | Binder
below the threshold | TSQESEDTYL [TBC1D10A, Q9BXI6]
below the threshold | DDENIRTSDV [PLEKHA2, Q9HB19]

Target: IL16_3, Q14005
Sequence (Q14005 1107-1207): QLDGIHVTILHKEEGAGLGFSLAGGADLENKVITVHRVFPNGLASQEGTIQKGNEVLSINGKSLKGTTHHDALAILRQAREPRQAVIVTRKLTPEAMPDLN
Assay: holdup assay
Parameters: key: below the threshold = too weak to quantify, mostly under pKd 3.1 to 4
Settings: plain residues with an end cap or a label only (N-terminal biotin on a linker: ado-ado)

pKd | Binder
below the threshold | TSQESEDTYL [TBC1D10A, Q9BXI6]
below the threshold | DDENIRTSDV [PLEKHA2, Q9HB19]

Target: T4, LIN7A, O14910
T4 sequence (O14910 103-200, limits assumed, looked up): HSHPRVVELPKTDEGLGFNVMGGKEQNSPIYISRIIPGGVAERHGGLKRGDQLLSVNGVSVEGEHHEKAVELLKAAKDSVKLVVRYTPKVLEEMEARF
Assay: holdup assay
Parameters: key: below the threshold = too weak to quantify, mostly under pKd 3.1 to 4
Settings: plain residues with an end cap or a label only (N-terminal biotin on a linker: ado-ado)

pKd | Binder
below the threshold | TSQESEDTYL [TBC1D10A, Q9BXI6]
below the threshold | DDENIRTSDV [PLEKHA2, Q9HB19]

Target: MAGI2_2, Q86UL8
Sequence (Q86UL8 410-522): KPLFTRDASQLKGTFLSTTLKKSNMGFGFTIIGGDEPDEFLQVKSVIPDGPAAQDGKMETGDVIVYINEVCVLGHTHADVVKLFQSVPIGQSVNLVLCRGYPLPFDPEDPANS
Assay: holdup assay
Parameters: key: below the threshold = too weak to quantify, mostly under pKd 3.1 to 4
Settings: plain residues with an end cap or a label only (N-terminal biotin on a linker: ado-ado)

pKd | Binder
below the threshold | TSQESEDTYL [TBC1D10A, Q9BXI6]
below the threshold | DDENIRTSDV [PLEKHA2, Q9HB19]

Target: MAST1, Q9Y2H9
Sequence (Q9Y2H9 962-1065): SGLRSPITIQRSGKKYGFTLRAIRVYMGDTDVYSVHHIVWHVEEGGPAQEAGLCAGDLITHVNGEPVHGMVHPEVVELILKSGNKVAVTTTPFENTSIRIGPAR
Assay: holdup assay
Parameters: key: below the threshold = too weak to quantify, mostly under pKd 3.1 to 4
Settings: plain residues with an end cap or a label only (N-terminal biotin on a linker: ado-ado)

pKd | Binder
4.71 | TSQESEDTYL [TBC1D10A, Q9BXI6]
4.31 | DDENIRTSDV [PLEKHA2, Q9HB19]

Target: T5, MPDZ_5, O75970
T5 sequence (O75970 695-796, limits assumed, looked up): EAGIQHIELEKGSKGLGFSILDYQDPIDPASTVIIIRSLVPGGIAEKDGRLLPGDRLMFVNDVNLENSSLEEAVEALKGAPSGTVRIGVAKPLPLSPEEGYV
Assay: holdup assay
Parameters: key: below the threshold = too weak to quantify, mostly under pKd 3.1 to 4
Settings: plain residues with an end cap or a label only (N-terminal biotin on a linker: ado-ado)

pKd | Binder
below the threshold | TSQESEDTYL [TBC1D10A, Q9BXI6]
below the threshold | DDENIRTSDV [PLEKHA2, Q9HB19]

Target: T6, MPP6, Q9NZW5
T6 sequence (Q9NZW5 125-219, limits assumed, looked up): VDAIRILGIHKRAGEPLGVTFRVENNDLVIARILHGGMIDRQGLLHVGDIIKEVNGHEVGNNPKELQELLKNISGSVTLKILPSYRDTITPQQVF
Assay: holdup assay
Parameters: key: below the threshold = too weak to quantify, mostly under pKd 3.1 to 4
Settings: plain residues with an end cap or a label only (N-terminal biotin on a linker: ado-ado)

pKd | Binder
below the threshold | TSQESEDTYL [TBC1D10A, Q9BXI6]
below the threshold | DDENIRTSDV [PLEKHA2, Q9HB19]

Target: NHERF2_2, Q15599
Sequence (Q15599 142-238): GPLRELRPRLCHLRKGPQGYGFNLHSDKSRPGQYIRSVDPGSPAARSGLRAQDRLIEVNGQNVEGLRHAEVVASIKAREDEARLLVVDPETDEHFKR
Assay: holdup assay
Parameters: key: below the threshold = too weak to quantify, mostly under pKd 3.1 to 4
Settings: plain residues with an end cap or a label only (N-terminal biotin on a linker: ado-ado)

pKd | Binder
5.52 | TSQESEDTYL [TBC1D10A, Q9BXI6]
below the threshold | DDENIRTSDV [PLEKHA2, Q9HB19]

Target: T7, NHERF3_1, Q5T2W1
T7 sequence (Q5T2W1 4-100, limits assumed, looked up): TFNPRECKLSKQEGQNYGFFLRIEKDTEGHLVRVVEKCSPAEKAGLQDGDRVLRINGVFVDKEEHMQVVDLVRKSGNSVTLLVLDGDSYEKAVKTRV
Assay: holdup assay
Parameters: key: below the threshold = too weak to quantify, mostly under pKd 3.1 to 4
Settings: plain residues with an end cap or a label only (N-terminal biotin on a linker: ado-ado)

pKd | Binder
5.69 | TSQESEDTYL [TBC1D10A, Q9BXI6]
below the threshold | DDENIRTSDV [PLEKHA2, Q9HB19]

Target: T8, NHERF3_4, Q5T2W1
T8 sequence (Q5T2W1 373-468, limits assumed, looked up): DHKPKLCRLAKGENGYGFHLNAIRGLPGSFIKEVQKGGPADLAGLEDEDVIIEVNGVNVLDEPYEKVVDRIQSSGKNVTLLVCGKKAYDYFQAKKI
Assay: holdup assay
Parameters: key: below the threshold = too weak to quantify, mostly under pKd 3.1 to 4
Settings: plain residues with an end cap or a label only (N-terminal biotin on a linker: ado-ado)

pKd | Binder
3.48 | TSQESEDTYL [TBC1D10A, Q9BXI6]
below the threshold | DDENIRTSDV [PLEKHA2, Q9HB19]

Target: T9, PCLO, Q9Y6V0
T9 sequence (Q9Y6V0 4491-4600, limits assumed, looked up): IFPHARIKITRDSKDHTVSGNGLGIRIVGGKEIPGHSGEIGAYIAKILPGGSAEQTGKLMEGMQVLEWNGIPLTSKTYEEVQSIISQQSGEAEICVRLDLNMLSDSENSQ
Assay: holdup assay
Parameters: key: below the threshold = too weak to quantify, mostly under pKd 3.1 to 4
Settings: plain residues with an end cap or a label only (N-terminal biotin on a linker: ado-ado)

pKd | Binder
below the threshold | TSQESEDTYL [TBC1D10A, Q9BXI6]
below the threshold | DDENIRTSDV [PLEKHA2, Q9HB19]

Target: T10, PDZD2_2, O15018
T10 sequence (O15018 329-429, limits assumed, looked up): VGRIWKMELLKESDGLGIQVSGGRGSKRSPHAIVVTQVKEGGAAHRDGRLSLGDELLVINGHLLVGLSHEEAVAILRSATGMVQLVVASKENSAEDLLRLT
Assay: holdup assay
Parameters: key: below the threshold = too weak to quantify, mostly under pKd 3.1 to 4
Settings: plain residues with an end cap or a label only (N-terminal biotin on a linker: ado-ado)

pKd | Binder
4.49 | TSQESEDTYL [TBC1D10A, Q9BXI6]
5.74 | DDENIRTSDV [PLEKHA2, Q9HB19]

Target: T11, SIPA1L2, Q9P2F8
T11 sequence (Q9P2F8 945-1036, limits assumed, looked up): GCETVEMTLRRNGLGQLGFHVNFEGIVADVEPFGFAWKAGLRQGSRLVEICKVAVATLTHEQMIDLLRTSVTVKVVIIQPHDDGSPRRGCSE
Assay: holdup assay
Parameters: key: below the threshold = too weak to quantify, mostly under pKd 3.1 to 4
Settings: plain residues with an end cap or a label only (N-terminal biotin on a linker: ado-ado)

pKd | Binder
below the threshold | TSQESEDTYL [TBC1D10A, Q9BXI6]
below the threshold | DDENIRTSDV [PLEKHA2, Q9HB19]

Target: T12, SNTA1, Q13424
T12 sequence (Q13424 82-180, limits assumed, looked up): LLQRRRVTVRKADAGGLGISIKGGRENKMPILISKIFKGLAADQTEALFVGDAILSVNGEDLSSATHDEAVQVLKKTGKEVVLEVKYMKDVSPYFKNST
Assay: holdup assay
Parameters: key: below the threshold = too weak to quantify, mostly under pKd 3.1 to 4
Settings: plain residues with an end cap or a label only (N-terminal biotin on a linker: ado-ado)

pKd | Binder
3.91 | TSQESEDTYL [TBC1D10A, Q9BXI6]
5.11 | DDENIRTSDV [PLEKHA2, Q9HB19]
